Results reported in IntAct's records for PubMed 17306257.

B1: SH3 domain-binding protein 2 (Homo sapiens), P78314 (parent)
chain: MAAEEMHWPVPMKAIGAQNLLTMPGGVAKAGYLHKKGGTQLQLLKWPLRFVIIHKRCVYYFKSSTSASPQGAFSLSGYNRVMRAAEETTSNNVFPFKIIHISKKHRTWFFSASSEEERKSWMALLRREIGHFHEKKDLPLDTSDSSSDTDSFYGAVERPVDISLSPYPTDNEDYEHDDEDDSYLEPDSPEPGRLEDALMHPPAYPPPPVPTPRKPAFSDMPRAHSFTSKGPGPLLPPPPPKHGLPDVGLAAEDSKRDPLCPRRAEPCPRVPATPRRMSDPPLSTMPTAPGLRKPPCFRESASPSPEPWTPGHGACSTSSAAIMATATSRNCDKLKSFHLSPRGPPTSEPPPVPANKPKFLKIAEEDPPREAAMPGLFVPPVAPRPPALKLPVPEAMARPAVLPRPEKPQLPHLQRSPPDGQSFRSFSFEKPRQPSQADTGGDDSDEDYEKVPLPNSVFVNTTESCEVERLFKATSPRGEPQDGLYCIRNSSTKSGKVLVVWDETSNKVRNYRIFEKDSKFYLEGEVLFVSVGSMVEHYHTHVLPSHQSLLLRHPYGYTGPR

Variants of: B1
Details: with sh3k1_human SH3KBP1, Q96B97
Chain of sh3k1_human SH3KBP1, Q96B97 (Q96B97 whole entry): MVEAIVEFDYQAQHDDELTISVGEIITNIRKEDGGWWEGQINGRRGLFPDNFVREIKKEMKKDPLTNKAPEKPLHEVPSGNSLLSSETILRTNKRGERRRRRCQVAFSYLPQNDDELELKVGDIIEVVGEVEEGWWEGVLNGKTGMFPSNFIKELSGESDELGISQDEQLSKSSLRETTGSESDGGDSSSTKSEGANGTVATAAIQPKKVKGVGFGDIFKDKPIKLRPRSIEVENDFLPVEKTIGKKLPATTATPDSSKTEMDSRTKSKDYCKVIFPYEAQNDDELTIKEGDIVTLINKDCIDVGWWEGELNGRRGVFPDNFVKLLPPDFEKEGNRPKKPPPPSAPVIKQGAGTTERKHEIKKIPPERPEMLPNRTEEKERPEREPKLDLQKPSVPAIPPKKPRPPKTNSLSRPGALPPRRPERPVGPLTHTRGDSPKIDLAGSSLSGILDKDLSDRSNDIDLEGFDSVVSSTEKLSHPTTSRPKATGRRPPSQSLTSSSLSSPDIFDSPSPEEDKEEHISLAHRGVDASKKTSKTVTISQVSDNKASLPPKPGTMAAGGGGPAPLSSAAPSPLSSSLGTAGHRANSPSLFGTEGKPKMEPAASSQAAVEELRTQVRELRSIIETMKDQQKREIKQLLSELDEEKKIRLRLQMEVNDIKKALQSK

effect of a mutation on the interaction | Variant
decreasing interaction | R213A
